Numbering of substitutions follows the chain as printed.
Tests used:
Experiment in all cases: cell-based or functional assay
[1] = target: T1, factor VIIIa A1/A3C1C2 dimer, Glu1984Val (human, UniProt P00451 20-391; P00451 1709-2351)
T1 sequence 1: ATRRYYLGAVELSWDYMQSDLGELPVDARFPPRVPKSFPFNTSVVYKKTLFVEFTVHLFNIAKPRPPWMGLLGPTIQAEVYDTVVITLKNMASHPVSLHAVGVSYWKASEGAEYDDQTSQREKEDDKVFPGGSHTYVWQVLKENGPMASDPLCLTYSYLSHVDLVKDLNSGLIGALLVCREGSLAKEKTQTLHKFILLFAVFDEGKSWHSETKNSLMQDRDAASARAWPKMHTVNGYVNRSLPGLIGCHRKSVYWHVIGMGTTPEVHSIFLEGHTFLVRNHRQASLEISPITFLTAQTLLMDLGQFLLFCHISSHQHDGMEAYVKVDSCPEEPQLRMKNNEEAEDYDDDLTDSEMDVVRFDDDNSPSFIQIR
T1 sequence 2: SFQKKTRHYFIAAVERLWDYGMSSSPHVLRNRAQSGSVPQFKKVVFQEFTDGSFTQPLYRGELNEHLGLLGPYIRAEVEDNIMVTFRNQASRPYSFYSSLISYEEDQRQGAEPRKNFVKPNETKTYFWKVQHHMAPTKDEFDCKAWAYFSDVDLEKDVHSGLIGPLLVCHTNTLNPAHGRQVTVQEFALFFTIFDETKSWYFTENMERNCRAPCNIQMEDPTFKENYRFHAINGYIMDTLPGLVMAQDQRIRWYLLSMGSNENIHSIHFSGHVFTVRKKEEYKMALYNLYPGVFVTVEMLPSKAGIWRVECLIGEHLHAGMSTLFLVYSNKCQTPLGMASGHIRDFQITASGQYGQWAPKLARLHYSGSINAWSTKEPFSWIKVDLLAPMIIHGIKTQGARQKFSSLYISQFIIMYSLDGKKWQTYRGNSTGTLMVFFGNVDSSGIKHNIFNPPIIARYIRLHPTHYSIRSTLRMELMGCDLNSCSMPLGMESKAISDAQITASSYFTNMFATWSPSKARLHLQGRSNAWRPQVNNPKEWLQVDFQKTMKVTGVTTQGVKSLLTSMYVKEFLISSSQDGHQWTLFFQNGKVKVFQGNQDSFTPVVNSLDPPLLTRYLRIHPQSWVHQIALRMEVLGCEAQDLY

[2] = target: T2, factor VIIIa A1/A3C1C2 dimer, wild type (human, UniProt P00451 20-391; P00451 1709-2351)
T2 sequence 1: T1 sequence 1
T2 sequence 2: T1 sequence 2 with V295E

[3] = target: T3, factor VIIIa A1/A3C1C2 dimer, Glu1984Ala (human, UniProt P00451 20-391; P00451 1709-2351)
T3 sequence 1: T1 sequence 1
T3 sequence 2: T1 sequence 2 with V295A

[4] = target: T1, factor VIIIa A1/A3C1C2 dimer, Glu1984Val; remark: listed apart in the source
[5] = target: T4, factor VIIIa A1/A3C1C2 dimer, E113A and E1984V (human, UniProt P00451 20-391; P00451 1709-2351)
T4 chain 1: T1 sequence 1 with E113A
T4 chain 2: T1 sequence 2

Factor VIIIa Decay relative to the WT value, Factor IXa absent [1]: 0.26 relative to WT | Factor VIIIa Decay relative to the WT value, Factor IXa present [1]: 0.13 relative to WT | Factor VIIIa Decay, Factor IXa absent [1]: 0.0217 min⁻¹ | Factor VIIIa Decay, Factor IXa present [1]: 0.0019 min⁻¹ | Decay rate relative to wild type, Factor VIIIa (1.5 nM, factor IXa absent) [2]: 1 relative to wild type | Decay rate, Factor VIIIa (1.5 nM factor VIIIa, factor IXa absent) [2]: 0.14 min⁻¹ | Decay rate relative to wild type, Factor VIIIa (1.5 nM, factor IXa absent) [3]: 0.41 relative to wild type | Decay rate, Factor VIIIa (1.5 nM factor VIIIa, factor IXa absent) [3]: 0.0574 min⁻¹ | Decay rate relative to wild type, Factor VIIIa (1.5 nM, factor IXa absent) [4]: 0.34 relative to wild type | Decay rate, Factor VIIIa (1.5 nM factor VIIIa, factor IXa absent) [4]: 0.0471 min⁻¹ | Decay rate relative to wild type, Factor VIIIa (1.5 nM, factor IXa absent) [5]: 0.4 relative to wild type | Decay rate, Factor VIIIa (1.5 nM factor VIIIa, factor IXa absent) [5]: 0.0567 min⁻¹
B1: factor VIIIa A2 subunit, wild type (other)
chain: SVAKKHPKTWVHYIAAEEEDWDYAPLVLAPDDRSYKSQYLNNGPQRIGRKYKKVRFMAYTDETFKTREAIQHESGILGPLLYGEVGDTLLIIFKNQASRPYNIYPHGITDVRPLYSRRLPKGVKHLKDFPILPGEIFKYKWTVTVEDGPTKSDPRCLTRYYSSFVNMERDLASGLIGPLLICYKESVDQRGNQIMSDKRNVILFSVFDENRSWYLTENIQRFLPNPAGVQLEDPEFQASNIMHSINGYVFDSLQLSVCLHEVAYWYILSIGAQTDFLSVFFSGYTFKHKMVYEDTLTLFPFSGETVFMSMENPGLWILGCHNSDFRNRGMTALLKVSSCDKNTGDYYEDSYEDISAYLLSKNNAIEPR

From patent US20090118184A1 (UNIVERSITY OF ROCHESTER, published 2009)
